The target of one series is myoglobin (horse, UniProt P68082 2-154). Put plainly: EMSA.
For series [1], the target named is MERS-CoV Spike S1 protein (Middle East respiratory syndrome …, UniProt K9N5Q8 18-751). As to the kind of experiment: bead-based fluorescence binding assay.
MERS-CoV Spike S1 protein, sequence (K9N5Q8 18-751): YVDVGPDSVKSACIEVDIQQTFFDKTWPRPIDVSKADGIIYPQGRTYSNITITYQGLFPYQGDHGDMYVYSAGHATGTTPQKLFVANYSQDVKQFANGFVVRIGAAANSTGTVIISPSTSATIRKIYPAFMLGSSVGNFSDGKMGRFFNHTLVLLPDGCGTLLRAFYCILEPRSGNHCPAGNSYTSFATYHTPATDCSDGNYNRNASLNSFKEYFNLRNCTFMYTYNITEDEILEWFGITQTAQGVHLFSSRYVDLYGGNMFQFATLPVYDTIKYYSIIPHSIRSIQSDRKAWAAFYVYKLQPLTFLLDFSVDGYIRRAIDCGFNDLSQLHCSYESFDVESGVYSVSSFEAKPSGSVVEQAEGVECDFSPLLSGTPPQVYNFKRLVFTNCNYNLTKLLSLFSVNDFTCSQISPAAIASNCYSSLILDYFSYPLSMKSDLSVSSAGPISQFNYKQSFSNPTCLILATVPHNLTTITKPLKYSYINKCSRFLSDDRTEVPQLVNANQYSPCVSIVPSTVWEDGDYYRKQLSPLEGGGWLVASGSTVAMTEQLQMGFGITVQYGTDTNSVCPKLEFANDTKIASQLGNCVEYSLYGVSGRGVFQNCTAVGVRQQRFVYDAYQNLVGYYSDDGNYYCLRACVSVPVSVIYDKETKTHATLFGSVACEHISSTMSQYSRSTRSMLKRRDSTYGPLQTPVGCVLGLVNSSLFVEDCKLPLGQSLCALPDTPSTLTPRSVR

myoglobin, sequence (P68082 2-154): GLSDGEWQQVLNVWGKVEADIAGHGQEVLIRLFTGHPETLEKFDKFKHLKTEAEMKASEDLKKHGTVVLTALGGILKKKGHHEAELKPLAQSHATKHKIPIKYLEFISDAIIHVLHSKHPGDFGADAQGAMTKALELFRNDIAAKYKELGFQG

B1: MF MERS aptamer (3WJ of MERSapt-3WJa, MB/3WJb, NH2/3WJc) (structured_DNA)
DNA 1: TGACACCGTACCTGCTCTGCACTTCCTTCACCAGAAACCTGCACATCTTCGCCGCGTGAAGCACGCCAAGGGACTATTTGCCATGTGTATGTGGG
DNA 2: TTTGGGTAGGGCGGGTTGGGCCCACATACTTTGTTGATCC
DNA 3: GGATCAATCATGGCAA
modifications: 5' NH2 on S6
For B1, the binding result with myoglobin is given as “no binding”.

B2: S-19 aptamer (ssDNA)
DNA: TGACACCGTACCTGCTCTGCACTTCCTTCACCAGAAACCTGCACATCTTCGCCGCGTGAAGCACGCCAAGGGACTAT
For orientation: Kd means the equilibrium constant for the complex coming apart. The low end stands for higher affinity, the high end for lower affinity. On to B2, for which the Kd in series [1] was found to be 112 ± 3.89 nM.

B3: S-12 aptamer (MERS aptamer-b) (ssDNA)
DNA: TGACACCGTACCTGCTCTCCGACCCATCTAGCACTTCACACACGCCCGATCGGATTAGTAAGCACGCCAAGGGACTAT
As for B3, in series [1], the Kd came to 287 ± 17.7 nM.

(Values after paper PMC8582077.)
